The DeepSol protein solubility set

Assay: soluble on expression in E. coli; label from the status in PepcDB or PDB records

Sequence	soluble on expression in E. coli
MAVSEIKATMKLKPLKAPVFHKRDKDLRGSFSDHLKHKESKLSPAQLEAFRNAYNFFTKDRTGCIDSHGLISTIAKLGMNLNTYDIYNELKCADLDRDGKINFSDFINVLTDKKLFLKAVVPEKKICLDLANNPGILLFEILSKFVETSSLHRKDIIELVSYFRKRFQESHSEIMWSSYGRRGLKSEICSPPRSSTAAFANSARISIMKERDLYKFLEALKRCNLRTDSPYSKIPVFPLFPDVDGTVMGKPFKDTQKIEMLRRKEPLTFFEDYFFNKRDWKTQAMNVKPLKSASGYSDDILAIDHLFKKKQHWTVTDAAAIKQHVKKATESYNLGIALDHRKEMLNLWKKIRGDLVGIESNNESFYNTFSTYTWSWNVCQELLSAKDLRLHDASMNKSSPSNSGLSSPSDFSESDPETGRKRKRKSSRGFRQ	not soluble
MAVYANTSVQDFYEFWLEEVKKKSLSYNSYYSFKKTVQNYILPLYGRLSMGKLRKNHVKRIYKKTYETSPSVAKIVKTVLTTSFKYALRYGYVEEDYVTGLKWNRVILEHHHHHH	not soluble
MAVYLDFENHIKEIQNEIELALIRGDEDAKEILEKRLDKEVKSIYSNLTDFQKLQLARHPDRPYAMDYIDLILKDKYEVFGDRHYNDDKAIVCFVGKIDNVPVVVIGEEKGRGTKNKLLRNFGMPNPCGYR	not soluble
MAWALPAQAEQLIYGFQAEQLEYRQGDSEDSFVWDFDALIGTDELKLVWRSEGERVQGAGGFETLENQLRLQFPVSTFFDAVVGVQASTPDGLPDRYNAVLGLKGLAPQWFEIDADLYLSDNSFFRFEGEYEAMLTNRLTLTPSLELTLPLQDDPIYNQAAGGVTLEAGLRLSYDLIDRAVSPYIGVNYERSYGGTADMIRAAGDENGAFSVVFGTRLMFLEHHHHHH	not soluble
MAWMEVRGKRFEILVRPELAFRYKEKGDVDLEDVLWTDTIYRDVRKGLKASPEEVKKAFGTSDPRRVAEKILKEGEIQLTEEQRRRLLEAKRRQIISYIARNAIDPTTGRPIPEARIEAALEEVRFPINLWRDAESQAVEAVRLIARVMPIRLARALLEVKIPPPHSGRAYQALMRMGEVKKADWLPDGSLKAELEIPAGAQVEVTSRIQALARGAAEVKVKKVAAAAAAALEHHHHHH	soluble
MAYELPELPYAYDALEPHIDKETMTIHHTKHHNTYVTNLNKAVEGNTALANKSVEELVADLDSVPENIRTAVRNNGGGHANHKLFWTLLSPNGGGEPTGALAEEINSVFGSFDKFKEQFAAAAAGRFGSGWAWLVVNNGKLEITSTPNQDSPLSEGKTPILGLDVWEHAYYLNYQNRRPDYISAFWNVVNWDEVARLYSERK	soluble
MAYTLATHTAGVIPAGKLERVDPTTVRQEGPWADPAQAVVQTGPNQYTVYVLAFAFGYQPNPIEVPQGAEIVFKITSPDVIHGFHVEGTNINVEVLPGEVSTVRYTFKRPGEYRIICNQYCGLGHQNMFGTIVVKE	soluble
MAYVGDDLIDWPVMEKVGLSVAVADAHPLLIPRADYVTRIAGGRGAVREVCDLLLLAQGKLDEAKGQSI	not soluble
MCENTLAQQKTEEFAPVSDLRAEAYGSTVFLHWTPPYDNPMIPLSESFESGIPAIWKTIDADGDGYNWMHLTNFTGQSGLCVSSASYIGGVGALTPDNYLITPELKLPTDALVEIIYWVCTQDLTAPSEHYAVYSSSTGNNAADFVNLLYEETLTAKRIQSPELIRGNRTQGVWYQRKVVLPNDTKYVAFRHFNSTDNFWLNLDEVSILYTPLPRRAPCPHPGGYTYSVFRDGQKIASGLSALAYIDTDVPYGTQDYCVQVNYLQGDSYKVCKNIVVANSANIYGADKPFALTVVGKTIVASAFKGEITLYDIRGRLIASGCDTLRYKAENGFYLIKIQVNGTVYTEKIQIQ	not soluble
